± gives the standard deviation.
Test: protein stability index of a GFP-peptide fusion (GPS, HEK-293T) (PSI 1-6); higher = more stable
[1] = treatment: DMSO, c terminus: a fixed tail appended
[2] = treatment: MLN4924 1 uM, 8 h, c terminus: a fixed tail appended
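Further: 24-mer peptide tiles fused after GFP, lentivirally expressed, FACS-sorted into six equal bins by GFP/DsRed ratio, decoded by Illumina sequencing, PSI is the read-weighted mean bin number.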

Row | Sequence | protein stability index [1] | protein stability index [2] | protein stability index (treatment: DMSO, c terminus: native) | protein stability index (treatment: MLN4924 1 uM, 8 h, c terminus: native)
1 | RHDVIVSIVTAAKKDILLVNDHLL [PDS5B] | 2.51 ± 0.31 | 2.29 ± 0.5 |  | 
2 | EKLNIPWNHIRLQRTAKGKPVLAK [AASDHPPT] | 3.16 ± 0.2 | 3.05 ± 0.33 |  | 
3 | TYKHINEVYYAKKKRRAQQAPPQD [DYRK1B] | 3.7 ± 0.085 | 3.66 ± 0.21 |  | 
4 | CHSFISGTAPLNQETAEFFLSLDI [ACSBG2] | 3.01 ± 1.4 | 2.6 ± 1.6 |  | 
5 | SNQEVLQSCLLVIFATKPHVLPAV [PYCR3] | 3.34 ± 0.4 | 3.01 ± 0.34 |  | 
6 | RMGDADYLAAWHRLVLPIAYEFNP [HDAC6] | 2.27 ± 0.56 | 2.3 ± 0.44 |  | 
7 | KRQVPREQAQAYAERLGVTFFEVS [RAB40A] | 3.11 ± 0.17 | 3.21 ± 0.31 |  | 
8 | SETLEQKPHFESSTVKTETISFGS [EPB41L3] | 5.19 ± 0.073 | 4.95 ± 0.34 |  | 
9 | ELQREWLGNREALIQFLEQVHQGI [CPN1] | 2.76 ± 0.12 | 2.97 ± 0.3 |  | 
10 | GNFESLDLAEFAKKQPWWRKLFGQ [FUNDC2] | 3.31 ± 0.24 | 3.29 ± 0.35 |  | 
11 | LAPDFDRWLDESDAEMELRAKEEE [HACD3] | 5.52 ± 0.12 | 5.45 ± 0.21 |  | 
12 | AEKLKAQGEYSRKLEERFMTLAAN [CCDC89] | 3.4 ± 0.41 | 3.49 ± 0.45 |  | 
13 | VALLTGKFSNIVDKFVIVDCRYPY [CDC25B] | 2.45 ± 1.7 | 2.59 ± 1.2 |  | 
14 | GLGNTWPGASGSAQSLDRLGIMGA [ATP23] | 3.3 ± 0.24 | 3.48 ± 0.3 |  | 
15 | PEEPAASTDPNIVRKKERGREEKC [TAF7L] | 5.28 ± 0.53 | 5.64 ± 0.32 |  | 
16 | PSPAAVPRPPSNPPARGTLKTSNL [TRAF3IP2] | 5.12 ± 0.1 | 4.94 ± 0.21 |  | 
17 | GFAFITFENPADAKNAAKDMNGKS [RBMY1A1] | 3.55 ± 0.46 | 3.68 ± 0.36 |  | 
18 | CSEDWVGYQRKCYFISTVKRSWTS [CD69] | 2.36 ± 0.33 | 2.65 ± 0.49 |  | 
19 | HLVAGGGAGAVSRTCTAPLDRLKV [SLC25A25] | 3.11 ± 0.35 | 3.25 ± 0.22 |  | 
20 | LRAELTKVEEEIVTLRQVLAAKER [TPD52L2] | 2.93 ± 0.31 | 3.45 ± 0.3 |  | 
21 | NRNHNEGMVTRCIIEVLSNALSKS [CHGB] | 2.25 ± 0.24 | 2.1 ± 0.27 |  | 
22 | AFGYFITACAVIILTIICYLGLPR [SLC29A1] | 2.3 ± 0.52 | 2.32 ± 0.41 |  | 

Row | Sequence | protein stability index [1] | protein stability index [2] | protein stability index (treatment: DMSO, c terminus: native) | protein stability index (treatment: MLN4924 1 uM, 8 h, c terminus: native)
23 | HITKTVKGGISETRIEKRIVITGD [EPB41L3] | 3.85 ± 0.28 | 3.96 ± 0.12 |  | 
24 | TIRSGISPNLNVVDGRLTYPTCGI [SASS6] | 2.86 ± 0.42 | 3.02 ± 0.26 |  | 
25 | ESRLKRSNPLAREIFRRHFRQLCY [ZSCAN9] | 2.15 ± 0.25 | 2.34 ± 0.1 |  | 
26 | RWTSYRFSRVCRLHRGQLSLFCLE [TRIM35] | 2.43 ± 0.54 | 2.23 ± 0.42 |  | 
27 | KRFEKQLTQIDGTLSTIEFQREAL [CHMP4C] | 3.98 ± 0.17 | 4 ± 0.27 |  | 
28 | VTFAAMQAQQGRSSLVWLFSQLYL [MCOLN1] | 3.03 ± 0.67 | 2.75 ± 0.47 |  | 
29 | RSPTLEPPRGRSEAPDSLNGPLGP [SMG5] | 4.89 ± 0.26 | 4.77 ± 0.055 |  | 
30 | FQNFSLHDPLYGKLFSTYLRPPHT [LPCAT4] | 2.27 ± 0.36 | 2.12 ± 0.19 |  | 
31 | RGIFVVRGENVVLLGEIDLEKESD [LSM1] | 2.37 ± 0.23 | 2.31 ± 0.52 |  | 
32 | LSKFDLPEEPSAEDSINNSLVQLQ [MYBL2] | 4.88 ± 0.13 | 4.85 ± 0.16 |  | 
33 | GEKPHRCPQCGKCFARKSQLTGHQ [ZNF449] | 4.66 ± 0.23 | 4.85 ± 0.31 |  | 
34 | HKADSIQGTARTLSPVLESPRDLQ [TNXB] | 4.75 ± 0.18 | 4.9 ± 0.14 |  | 
35 | LHYFPFFLMGRVLYFHHYFPAMLF [POMT2] | 3.09 ± 0.93 | 2.58 ± 0.52 |  | 
36 | AQYSVTGSAVARAVCKATTHEVMG [SNAP91] | 3.34 ± 0.088 | 3.23 ± 0.2 |  | 
37 | MATPPFRLIRKMFSFKVSRWMGLA [CCDC70] | 2.51 ± 0.48 | 2.22 ± 0.099 |  | 
38 | VCDSCHEAITDEERAPTATFHDSK [WDFY2] | 5.02 ± 0.21 | 5.16 ± 0.13 |  | 
39 | HRYIAYMANQEAAIQAFLDKCSAP [IQUB] | 2.51 ± 0.2 | 2.38 ± 0.46 |  | 
40 | RLMDVCATSRTDREIKVTLVFEHV [CDK4] | 2.65 ± 0.57 | 2.5 ± 0.15 |  | 
41 | EPDNWMKEVMLFGHGTRKRVPLGR [RSAD1] | 3.69 ± 0.29 | 3.32 ± 0.15 |  | 
42 | IHAELSKLVKKHAAQRSTETALYR [FKBP8] | 2.94 ± 0.31 | 2.69 ± 0.44 |  | 
43 | RYRQAGSSGPGNSQNSFLVQEVME [RPAIN] | 4.17 ± 0.23 | 3.82 ± 0.28 |  | 
44 | SRNFIERNHMENGGDHRYVNNYTN [TRIM29] | 3.46 ± 0.22 | 3.57 ± 0.18 |  | 

Row | Sequence | protein stability index [1] | protein stability index [2] | protein stability index (treatment: DMSO, c terminus: native) | protein stability index (treatment: MLN4924 1 uM, 8 h, c terminus: native)
45 | VAVCPIPAAGLDVTQPCGDCGTIQ [HDAC6] | 3.46 ± 0.24 | 3.81 ± 0.41 |  | 
46 | FNNGEYAEAEALYSAYIRRCACAA [TTC32] | 2.39 ± 0.19 | 2.64 ± 0.46 |  | 
47 | LVNPTCQVLVKDFTFEGFSRLRFL [ZER1] | 2.02 ± 0.23 | 2.27 ± 0.29 |  | 
48 | MGPAPRARPWTRDSASLPRKPSVP [RASAL3] | 4.08 ± 0.14 | 4.12 ± 0.23 |  | 
49 | SARQGELQKVLLMLVDGIDPNFKM [EHMT1] | 1.98 ± 0.23 | 2.04 ± 0.29 |  | 
50 | LWTSFIQSVSYSKLLSVIVWMLML [P2RY14] | 3.32 ± 0.53 | 3.4 ± 0.21 |  | 
51 | FKAWLHNSGTDQEQIHLLLSSQCF [M1AP] | 2.6 ± 0.66 | 2.43 ± 0.39 |  | 
52 | QLKKCETRKLSPGKKRCKDIKRLL [SMG5] | 3.32 ± 0.51 | 3.22 ± 0.18 |  | 
53 | HFLSKMPEAEENKQIIRKHAQTFV [CCND1] | 3.39 ± 0.21 | 3.43 ± 0.29 |  | 
54 | KIVEFNPMVLKGKIRPDSSRPELL [GLT8D2] | 3.09 ± 0.36 | 3.35 ± 0.39 |  | 
55 | RYCMQLSQIQGLIGSVEEQLAQLR [KRT16] | 2.28 ± 0.45 | 2.49 ± 0.28 |  | 
56 | SCAWSLNIQANNCFSTGLSRRVLL [DCAF4] | 3.38 ± 0.47 | 2.35 ± 0.38 |  | 
57 | HRRTVKMRKGNTMQQFLQKALEIL [FAM50A] | 3.08 ± 0.36 | 2.77 ± 0.42 |  | 
58 | GRVLRKLPFLAHALYVQAPTVTIE [TRIP13] | 2.32 ± 0.54 | 2.05 ± 0.45 |  | 
59 | PPHKHVARPTEVLAGTQLLYAFFT [TRIB3] | 2.46 ± 0.21 | 2.43 ± 0.15 |  | 
60 | LYLCPNGARCATWFQDPTRFTGTM [SLC25A39] | 2.82 ± 0.64 | 2.7 ± 0.63 |  | 
61 | YPENDWDTAAPVPQKDLEIFKNF [PRKX] |  |  | 5.08 ± 0.33 | 5.33 ± 0.25
62 | LIKLGLERFHGVGILGFNSAEWFI [ACSBG2] | 1.91 ± 0.25 | 2.13 ± 0.65 |  | 
63 | AACTRALESSEELLETANQTLQAM [FSD1] | 5.14 ± 0.16 | 4.84 ± 0.38 |  | 
64 | PGMASHPPIPILELADHIERLKAN [PTPRD] | 3.6 ± 0.18 | 3.81 ± 0.19 |  | 
65 | LQPPHESRPQPIYYGFSESAESQG [ADAMTSL2] | 4.18 ± 0.39 | 4.22 ± 0.56 |  | 
